Source: patent publication US20150064179A1 (BIOTEST, published 2015)

What was measured:
[1] = target: T1, human interleukin 10 (R&D Systems, Cat. No. 217-IL/CF) (human, UniProt P22301 19-178); assay: antigen ELISA on plate-coated hIL-10 (2 µg/ml), COS-7 supernatants adjusted to the same antibody concentration; one concentration, not given
T1 construct: also called hIL-10; human IL-10
From the text: In brief, the expression vectors coding for the light chain and for the heavy chain were transiently cotransfected into COS-7 cells by calcium phosphate precipitation in DMEM containing 10% FCS in a 24-well format. After transfection the medium was replaced by the serum free medium CHO-S-SFM II (Invitrogen, Germany) and the supernatants of the COS-7 cells were collected 2-3 days after transfection. The antibody titer of the humanized antibodies secreted into the supernatants of transfected COS-7 cells were analyzed by a sandwich ELISA. Based on the determined antibody concentrations supernatants of all samples were adjusted to the same antibody concentrations, and all samples were used to analyze binding to human IL-10 in an antigen ELISA, whereby Maxisorb plates (Nunc, Germany) were coated with 2 μg/ml hIL-10 in PBS.

[2] = target: T1, human interleukin 10 (R&D Systems, Cat. …); assay: SPR Biacore 2000, hIL-10 immobilised on CM-5 chip, antibody as analyte, n=6
Experimental: (§1) Surface plasmon resonance analysis was used to measure the association and dissociation rate constants for binding of the different antibodies (murine, chimeric, 3 humanized variants) towards hIL-10 using BIACORE 2000 (Biacore AB, Uppsala, Sweden). hIL-10 was immobilized on a CM-5 sensor chip according to manufacturers conditions. hIL-10 was immobilized by adding a 50 μl aliquot of 20 μg/ml at a flow rate of 5 μl/minute resulting in an immobilization density of 320RU. The immobilized hIL-10 surface was regenerated in a two step cycle by using 0.1M carbonate buffer pH 9.2 and 0.01M HCL/1M NaCl at flow rates of 50 μl/minute for one minute each. Each antibody sample was analyzed at least 4 times in antibody concentration ranges of 20-0.15 μg/ml. Calculations from the sensograms were performed by using the BIA evaluation version 3 (1999) software.

[3] = target: T1, human interleukin 10 (R&D Systems, Cat. …); assay: SPR Biacore 2000, hIL-10 immobilised on CM-5 chip
Experimental: as §1
However, slight differences are detectable. […] Slight differences in association and dissociation rates are also detectable.

[4] = target: T1, human interleukin 10 (R&D Systems, Cat. …); assay: SPR Biacore 2000, hIL-10 immobilised on CM-5 chip, antibody as analyte, n=4
Experimental: as §1

[5] = target: T1, human interleukin 10 (R&D Systems, Cat. …); assay: SPR Biacore T100, BT-063 immobilised by amine coupling, rhIL-10 as analyte, assay no 1
[6] = target: T2, recombinant Cynomolgus IL-10 (Cynomolgus, UniProt P79338 19-178); assay: SPR Biacore T100, BT-063 immobilised by amine coupling, rCIL-10 as analyte, assay no 1
T2 construct: also called rCIL-10
Experimental: (§2) The affinity of the BT-63 variant 3 (hVH26/hVL7) to Cynomolgus IL-10 was analysed by additional surface plasmon resonance experiments using a Biacore T100 (Biacore AB, Uppsala, Sweden).
(§3) BT-063 was diluted in 10 mM acetate pH5.5 to 5 μg/mL and immobilized using amine coupling procedure to obtain a final level of about 1000 RU. Regeneration of the sensor chip surface was obtained injecting 10 mM Glycine-HCl pH 1.8 for 30 s. Samples were injected in different concentrations over the flow cell as well as over the reference cell. Signals obtained by the reference cell were subtracted from the signals obtained by the detector flow cell and resulting binding profiles were evaluated using a 1:1 Langmuir-binding model.

[7] = target: T2, recombinant Cynomolgus IL-10; assay: SPR Biacore T100, BT-063 immobilised by amine coupling, IL-10 as analyte, 1:1 Langmuir model, average
Experimental: as §2, §3

[8] = target: T2, recombinant Cynomolgus IL-10; assay: SPR Biacore T100, BT-063 immobilised by amine coupling, rCIL-10 as analyte, assay no 2
Experimental: as §2, §3

[9] = target: T2, recombinant Cynomolgus IL-10; assay: SPR Biacore T100, BT-063 immobilised by amine coupling, rCIL-10 as analyte, assay no 3
Experimental: as §2, §3

[10] = target: T1, human interleukin 10 (R&D Systems, Cat. …); assay: SPR Biacore 2000, hIL-10 immobilised on CM-5 chip, antibody as analyte, n=5
Experimental: as §1

T1 sequence (P22301 19-178): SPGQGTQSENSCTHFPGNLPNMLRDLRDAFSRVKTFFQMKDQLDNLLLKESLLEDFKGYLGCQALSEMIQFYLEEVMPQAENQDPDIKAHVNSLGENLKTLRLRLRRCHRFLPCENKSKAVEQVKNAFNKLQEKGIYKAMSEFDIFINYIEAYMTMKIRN
T2 sequence (P79338 19-178 limits assumed): as the sequence (P22301 19-178) above, with H14R, N21H, L46I, Q83H, A89E, N129S, I136V counted along it

B1: humanized antibody variant hVH13/hVL8 (antibody, V domains shown)
VH: EVQLVESGGGLVQPGGSLRLSCAASGFTFSTYGVHWVRQAPGKGLEWVSVIWRGGSTDYSAAFMSRFTISRDNSKNTVYFQMNSLRAEDTAVYYCARQAYGHYMDYWGQGTLVTVSS
VL: DVLMTQSPLSLPVTLGQPASISCRSSQNIVHSNGNTYLEWFQQRPGQSPRLLIYKVSNRFSGVPDRFSGSGSGTDFTLKISRVEAEDVGVYYCFQGSHVPWTFGGGTKVEIK
notes: human constant kappa and gamma-1; tested as COS-7 supernatant
binding result [1]: binds

B2: humanized antibody variant hVH18/hVL7 (antibody, V domains shown)
VH: EVQLVESGGGLVQPGGSLRLSCAASGFSFATYGVHWVRQSPGKGLEWLGVIWRGGSTDYSAAFMSRLTISKDNSKNTLYLQMNSLRAEDTAVYYCARQAYGHYMDYWGQGTLVTVSS
VL: DVVMTQSPLSLPVTLGQPASISCRSSQNIVHSNGNTYLEWYLQRPGQSPRLLIYKVSNRFSGVPDRFSGSGSGTDFTLKISRVEAEDVGVYYCFQGSHVPWTFGQGTKVEIK
notes: as for B1
binding result [1]: binds

B3: BT-063-1 (hVH20/hVL7) (antibody, V domains shown)
VH: EVQLVESGGGLVQPGGSLRLSCAASGFSFATYGVHWVRQSPGKGLEWLGVIWRGGSTDYSAAFMSRLTISKDNSKNTVYFQMNSLRAEDTAVYFCAKQAYGHYMDYWGQGTSVTVSS
VL: DVVMTQSPLSLPVTLGQPASISCRSSQNIVHSNGNTYLEWYLQRPGQSPRLLIYKVSNRFSGVPDRFSGSGSGTDFTLKISRVEAEDVGVYYCFQGSHVPWTFGQGTKVEIK
notes: also called BT-063 variant hVH20/hVL7
Kd [2]: 1.22 nM
koff [2]: 0.00103 s⁻¹
kon [2]: 1.21e+06 M⁻¹ s⁻¹

B4: BT-063-2 (hVH20/hVL8) (antibody, V domains shown)
VH: EVQLVESGGGLVQPGGSLRLSCAASGFSFATYGVHWVRQSPGKGLEWLGVIWRGGSTDYSAAFMSRLTISKDNSKNTVYFQMNSLRAEDTAVYFCAKQAYGHYMDYWGQGTSVTVSS
VL: DVLMTQSPLSLPVTLGQPASISCRSSQNIVHSNGNTYLEWFQQRPGQSPRLLIYKVSNRFSGVPDRFSGSGSGTDFTLKISRVEAEDVGVYYCFQGSHVPWTFGGGTKVEIK
notes: also called BT-063 variant hVH20/hVL8
factor of reduced affinity compared to the murine B-N10 [3]: ~3 fold
Kd [4]: 2.81 nM
koff [4]: 0.00164 s⁻¹
kon [4]: 1.21e+06 M⁻¹ s⁻¹

B5: BT-063-3 (hVH26/hVL7) (antibody, V domains shown)
VH: EVQLVESGGGLVQPGGSLRLSCAASGFSFATYGVHWVRQSPGKGLEWLGVIWRGGSTDYSAAFMSRLTISKDNSKNTVYLQMNSLRAEDTAVYFCAKQAYGHYMDYWGQGTSVTVSS
VL: DVVMTQSPLSLPVTLGQPASISCRSSQNIVHSNGNTYLEWYLQRPGQSPRLLIYKVSNRFSGVPDRFSGSGSGTDFTLKISRVEAEDVGVYYCFQGSHVPWTFGQGTKVEIK
notes: also called BT-63 variant 3; BT-063 (variant hVH26/hVL7)
factor of reduced affinity compared to the murine B-N10 [3]: ~3 fold
Kd [5]: 4.6 nM
koff [5]: 0.003 s⁻¹
kon [5]: 600000 M⁻¹ s⁻¹
Kd [6]: 0.196 nM
koff [6]: 0.012 s⁻¹
kon [6]: 6.2e+07 M⁻¹ s⁻¹
Kd [7]: 0.194 nM
Kd [8]: 0.195 nM
koff [8]: 0.017 s⁻¹
kon [8]: 8.6e+07 M⁻¹ s⁻¹
Kd [9]: 0.191 nM
koff [9]: 0.018 s⁻¹
kon [9]: 9.7e+07 M⁻¹ s⁻¹
Kd [10]: 2.91 nM
koff [10]: 0.00266 s⁻¹
kon [10]: 1.07e+06 M⁻¹ s⁻¹

B6: humanized antibody variant hVH1/hVL7 (antibody, V domains shown)
VH: EVQLVESGGGLVQPGGSLRLSCAASGFTFSTYGVHWVRQAPGKGLEWVSVIWRGGSTDYSAAFMSRFTISRDNSKNTLYLQMNSLRAEDTAVYYCARQAYGHYMDYWGQGTLVTVSS
VL: DVVMTQSPLSLPVTLGQPASISCRSSQNIVHSNGNTYLEWYLQRPGQSPRLLIYKVSNRFSGVPDRFSGSGSGTDFTLKISRVEAEDVGVYYCFQGSHVPWTFGQGTKVEIK
notes: as for B1
binding result [1]: binds

B7: humanized antibody variant hVH1/hVL8 (antibody, V domains shown)
VH: EVQLVESGGGLVQPGGSLRLSCAASGFTFSTYGVHWVRQAPGKGLEWVSVIWRGGSTDYSAAFMSRFTISRDNSKNTLYLQMNSLRAEDTAVYYCARQAYGHYMDYWGQGTLVTVSS
VL: DVLMTQSPLSLPVTLGQPASISCRSSQNIVHSNGNTYLEWFQQRPGQSPRLLIYKVSNRFSGVPDRFSGSGSGTDFTLKISRVEAEDVGVYYCFQGSHVPWTFGGGTKVEIK
notes: as for B1
binding result [1]: binds

B8: humanized antibody variant hVH9/hVL7 (antibody, V domains shown)
VH: EVQLVESGGGLVQPGGSLRLSCAASGFTFSTYGVHWVRQAPGKGLEWVSVIWRGGSTDYSAAFMSRFTISRDNSKNTLYLQMNSLRAEDTAVYFCAKQAYGHYMDYWGQGTLVTVSS
VL: DVVMTQSPLSLPVTLGQPASISCRSSQNIVHSNGNTYLEWYLQRPGQSPRLLIYKVSNRFSGVPDRFSGSGSGTDFTLKISRVEAEDVGVYYCFQGSHVPWTFGQGTKVEIK
notes: as for B1
binding result [1]: binds

B9: humanized antibody variant hVH13/hVL7 (antibody, V domains shown)
VH: EVQLVESGGGLVQPGGSLRLSCAASGFTFSTYGVHWVRQAPGKGLEWVSVIWRGGSTDYSAAFMSRFTISRDNSKNTVYFQMNSLRAEDTAVYYCARQAYGHYMDYWGQGTLVTVSS
VL: DVVMTQSPLSLPVTLGQPASISCRSSQNIVHSNGNTYLEWYLQRPGQSPRLLIYKVSNRFSGVPDRFSGSGSGTDFTLKISRVEAEDVGVYYCFQGSHVPWTFGQGTKVEIK
notes: as for B1
binding result [1]: binds

B10: humanized antibody variant hVH18/hVL8 (antibody, V domains shown)
VH: EVQLVESGGGLVQPGGSLRLSCAASGFSFATYGVHWVRQSPGKGLEWLGVIWRGGSTDYSAAFMSRLTISKDNSKNTLYLQMNSLRAEDTAVYYCARQAYGHYMDYWGQGTLVTVSS
VL: DVLMTQSPLSLPVTLGQPASISCRSSQNIVHSNGNTYLEWFQQRPGQSPRLLIYKVSNRFSGVPDRFSGSGSGTDFTLKISRVEAEDVGVYYCFQGSHVPWTFGGGTKVEIK
notes: as for B1
binding result [1]: binds

B11: humanized antibody variant hVH26/hVL8 (antibody, V domains shown)
VH: EVQLVESGGGLVQPGGSLRLSCAASGFSFATYGVHWVRQSPGKGLEWLGVIWRGGSTDYSAAFMSRLTISKDNSKNTVYLQMNSLRAEDTAVYFCAKQAYGHYMDYWGQGTSVTVSS
VL: DVLMTQSPLSLPVTLGQPASISCRSSQNIVHSNGNTYLEWFQQRPGQSPRLLIYKVSNRFSGVPDRFSGSGSGTDFTLKISRVEAEDVGVYYCFQGSHVPWTFGGGTKVEIK
notes: as for B1
binding result [1]: binds

B12: humanized antibody variant hVH28/hVL7 (antibody, V domains shown)
VH: EVQLVESGGGLVQPGGSLRLSCAASGFSFATYGVHWVRQSPGKGLEWLGVIWRGGSTDYSAAFMSRLTISKDNSKNTVYFQMNSLRAEDTAVYYCARQAYGHYMDYWGQGTSVTVSS
VL: DVVMTQSPLSLPVTLGQPASISCRSSQNIVHSNGNTYLEWYLQRPGQSPRLLIYKVSNRFSGVPDRFSGSGSGTDFTLKISRVEAEDVGVYYCFQGSHVPWTFGQGTKVEIK
notes: as for B1
binding result [1]: binds

B13: humanized antibody variant hVH28/hVL8 (antibody, V domains shown)
VH: EVQLVESGGGLVQPGGSLRLSCAASGFSFATYGVHWVRQSPGKGLEWLGVIWRGGSTDYSAAFMSRLTISKDNSKNTVYFQMNSLRAEDTAVYYCARQAYGHYMDYWGQGTSVTVSS
VL: DVLMTQSPLSLPVTLGQPASISCRSSQNIVHSNGNTYLEWFQQRPGQSPRLLIYKVSNRFSGVPDRFSGSGSGTDFTLKISRVEAEDVGVYYCFQGSHVPWTFGGGTKVEIK
notes: as for B1
binding result [1]: binds
